T1: mouse FcγRII extracellular domain, C-terminal His tag (mouse, UniProt P08101 30-210)
T1 construct: also called mFcγRII; mFcgRII
T1 sequence: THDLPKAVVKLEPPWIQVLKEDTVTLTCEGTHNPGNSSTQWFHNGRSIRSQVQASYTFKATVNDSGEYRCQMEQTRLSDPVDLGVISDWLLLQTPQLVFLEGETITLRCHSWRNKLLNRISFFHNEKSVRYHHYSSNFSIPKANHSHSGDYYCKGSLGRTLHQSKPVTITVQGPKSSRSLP

T2: mouse FcγRIII extracellular domain, C-terminal His tag (mouse, UniProt P08508 31-215)
T2 construct: also called mFcγRIII; mFcgRIII
T2 chain: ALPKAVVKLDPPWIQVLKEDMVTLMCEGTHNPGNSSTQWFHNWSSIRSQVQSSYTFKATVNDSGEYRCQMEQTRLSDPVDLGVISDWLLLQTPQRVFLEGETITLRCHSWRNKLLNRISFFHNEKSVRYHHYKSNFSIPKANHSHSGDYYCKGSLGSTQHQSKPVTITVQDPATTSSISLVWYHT


Legend:
[1] = target: T1, mouse FcγRII extracellular domain, …; assay: SPR (Biacore T200), antibody captured on Protein L, mFcγR analyte
Procedure: (§1) Each altered antibody was analyzed for its interaction with each Fcγ receptor prepared above using Biacore T100 (GE Healthcare Japan Corp.), Biacore T200 (GE Healthcare Japan Corp.), Biacore A100, or Biacore 4000. The running buffer used was HBS-EP+ (GE Healthcare Japan Corp.). The assay temperature was set to 25° C. The sensor chips used were chips prepared by immobilizing Protein L (ACTIGEN or BioVision) onto Series S Sensor Chip CM5 (GE Healthcare Japan Corp.) or Series S Sensor Chip CM4 (GE Healthcare Japan Corp.) by the amine coupling method.
(§2) In order to calculate the KD value of each altered antibody for FcγR, kinetic analysis was conducted according to the following method: first, the antibody of interest was captured onto any of these chips and allowed to interact with mFcγR diluted with a running buffer. For the obtained sensorgram, the assay results were globally fit into the 1:1 Langmuir binding model using Biacore Evaluation Software to calculate an association rate constant ka (L/mol/s) and a dissociation rate constant kd (1/s). From these values, the dissociation constant KD (mol/L) was calculated.

[2] = target: T2, mouse FcγRIII extracellular domain, …; assay: as above
Procedure: as §1, §2

Binder	Kd [1] [nM]	relative mFcγRII-binding activity (mIgG1 = 1) [1]	Kd [2] [nM]	relative mFcγRIII-binding activity (mIgG1 = 1) [2]
H237-MB782/MRAL-k0 (antibody, mouse IgG1, kappa, copies: 2 + 2) heavy: QVQLQESGPGLVKPSETLSLTCAVSGHSISHDHAWSWVRQPPGEGLEWIGFISYSGITNYNPSLQGRVTISRDNSKNTLYLQMNSLRAEDTAVYYCARSLARTTAMDYWGEGTLVTVSSAKTTPPSVYPLAPGSAAQTNSMVTLGCLVKGYFPEPVTVTWNSGSLSSGVHTFPAVLQSDLYTLSSSVTVPSSTWPSETVTCNVAHPASSTKVDKKIVPRDCGCKPCICEPNEVELVFIFPPKPKDVLTITLTPKVTCVVVDISKDDPEVQFSWFVDDVEVHTAQTQPREELFNSTFRSVSELPIMHQDWLNGKEFKCRVDSAAFPAPIEKTISKTKGRPKAPQVYTIPPPKEQMAKDKVSLTCMITDFFPEDITVEWQWNGQPAENYKNTQPIMDTDGSYFVYSKLNVQKSNWEAGNTFTCSVLHEGLHNHHTEKSLSHSPGK light: not shown	9.88	21.3 fold vs H237-mIgG1/MRAL-k0	567	0.5 fold vs H237-mIgG1/MRAL-k0
H237-MB785/MRAL-k0 (antibody, mouse IgG1, kappa, copies: 2 + 2) heavy: QVQLQESGPGLVKPSETLSLTCAVSGHSISHDHAWSWVRQPPGEGLEWIGFISYSGITNYNPSLQGRVTISRDNSKNTLYLQMNSLRAEDTAVYYCARSLARTTAMDYWGEGTLVTVSSAKTTPPSVYPLAPGSAAQTNSMVTLGCLVKGYFPEPVTVTWNSGSLSSGVHTFPAVLQSDLYTLSSSVTVPSSTWPSETVTCNVAHPASSTKVDKKIVPRDCGCKPCICEPNEVELVFIFPPKPKDVLTITLTPKVTCVVVDISKDDPEVQFSWFVDDVEVHTAQTQPREEQFNSTFRSVSELPIMHQDWLNGKEFKCRVDSDAFPAPIEKTISKTKGRPKAPQVYTIPPPKEQMAKDKVSLTCMITDFFPEDITVEWQWNGQPAENYKNTQPIMDTDGSYFVYSKLNVQKSNWEAGNTFTCSVLHEGLHNHHTEKSLSHSPGK light: not shown	8.43	24.9 fold vs H237-mIgG1/MRAL-k0	577	0.5 fold vs H237-mIgG1/MRAL-k0
H237-MB788/MRAL-k0 (antibody, mouse IgG1, kappa, copies: 2 + 2) heavy: QVQLQESGPGLVKPSETLSLTCAVSGHSISHDHAWSWVRQPPGEGLEWIGFISYSGITNYNPSLQGRVTISRDNSKNTLYLQMNSLRAEDTAVYYCARSLARTTAMDYWGEGTLVTVSSAKTTPPSVYPLAPGSAAQTNSMVTLGCLVKGYFPEPVTVTWNSGSLSSGVHTFPAVLQSDLYTLSSSVTVPSSTWPSETVTCNVAHPASSTKVDKKIVPRDCGCKPCICEPNEVELVFIFPPKPKDVLTITLTPKVTCVVVDISKDDPEVQFSWFVDDVEVHTAQTQPREELFNSTFRSVSELPIMHQDWLNGKEFKCRVDSAAFPAPIERTISKTKGRPKAPQVYTIPPPKEQMAKDKVSLTCMITDFFPEDITVEWQWNGQPAENYKNTQPIMDTDGSYFVYSKLNVQKSNWEAGNTFTCSVLHEGLHNHHTEKSLSHSPGK light: not shown	9.38	22.4 fold vs H237-mIgG1/MRAL-k0	475	0.6 fold vs H237-mIgG1/MRAL-k0
H237-MB784/MRAL-k0 (antibody, mouse IgG1, kappa, copies: 2 + 2) heavy: QVQLQESGPGLVKPSETLSLTCAVSGHSISHDHAWSWVRQPPGEGLEWIGFISYSGITNYNPSLQGRVTISRDNSKNTLYLQMNSLRAEDTAVYYCARSLARTTAMDYWGEGTLVTVSSAKTTPPSVYPLAPGSAAQTNSMVTLGCLVKGYFPEPVTVTWNSGSLSSGVHTFPAVLQSDLYTLSSSVTVPSSTWPSETVTCNVAHPASSTKVDKKIVPRDCGCKPCICEPNEVELVFIFPPKPKDVLTITLTPKVTCVVVDISKDDPEVQFSWFVDDVEVHTAQTQPREELFNSTFRSVSELPIMHQDWLNGKEFKCRVNSAAFPAPIERTISKTKGRPKAPQVYTIPPPKEQMAKDKVSLTCMITDFFPEDITVEWQWNGQPAENYKNTQPIMDTDGSYFVYSKLNVQKSNWEAGNTFTCSVLHEGLHNHHTEKSLSHSPGK light: not shown	14.3	14.7 fold vs H237-mIgG1/MRAL-k0	734	0.4 fold vs H237-mIgG1/MRAL-k0

Now those with a lower Kd [1], led by results:

Kd [1] [nM]	relative mFcγRII-binding activity (mIgG1 = 1) [1]	Kd [2] [nM]	relative mFcγRIII-binding activity (mIgG1 = 1) [2]	Binder
7.73	27.2 fold vs H237-mIgG1/MRAL-k0	493	0.6 fold vs H237-mIgG1/MRAL-k0	H237-MB786/MRAL-k0 (antibody, mouse IgG1, kappa, copies: 2 + 2) heavy: QVQLQESGPGLVKPSETLSLTCAVSGHSISHDHAWSWVRQPPGEGLEWIGFISYSGITNYNPSLQGRVTISRDNSKNTLYLQMNSLRAEDTAVYYCARSLARTTAMDYWGEGTLVTVSSAKTTPPSVYPLAPGSAAQTNSMVTLGCLVKGYFPEPVTVTWNSGSLSSGVHTFPAVLQSDLYTLSSSVTVPSSTWPSETVTCNVAHPASSTKVDKKIVPRDCGCKPCICEPNEVELVFIFPPKPKDVLTITLTPKVTCVVVDISKDDPEVQFSWFVDDVEVHTAQTQPREEQFNSTFRSVSELPIMHQDWLNGKEFKCRVNSDAFPAPIERTISKTKGRPKAPQVYTIPPPKEQMAKDKVSLTCMITDFFPEDITVEWQWNGQPAENYKNTQPIMDTDGSYFVYSKLNVQKSNWEAGNTFTCSVLHEGLHNHHTEKSLSHSPGK light: not shown
6.85	30.6 fold vs H237-mIgG1/MRAL-k0	378	0.7 fold vs H237-mIgG1/MRAL-k0	H237-MB783/MRAL-k0 (antibody, mouse IgG1, kappa, copies: 2 + 2) heavy: QVQLQESGPGLVKPSETLSLTCAVSGHSISHDHAWSWVRQPPGEGLEWIGFISYSGITNYNPSLQGRVTISRDNSKNTLYLQMNSLRAEDTAVYYCARSLARTTAMDYWGEGTLVTVSSAKTTPPSVYPLAPGSAAQTNSMVTLGCLVKGYFPEPVTVTWNSGSLSSGVHTFPAVLQSDLYTLSSSVTVPSSTWPSETVTCNVAHPASSTKVDKKIVPRDCGCKPCICEPNEVELVFIFPPKPKDVLTITLTPKVTCVVVDISKDDPEVQFSWFVDDVEVHTAQTQPREELFNSTFRSVSELPIMHQDWLNGKEFKCRVNSDAFPAPIEKTISKTKGRPKAPQVYTIPPPKEQMAKDKVSLTCMITDFFPEDITVEWQWNGQPAENYKNTQPIMDTDGSYFVYSKLNVQKSNWEAGNTFTCSVLHEGLHNHHTEKSLSHSPGK light: not shown
6.8	30.9 fold vs H237-mIgG1/MRAL-k0	343	0.8 fold vs H237-mIgG1/MRAL-k0	H237-MB789/MRAL-k0 (antibody, mouse IgG1, kappa, copies: 2 + 2) heavy: QVQLQESGPGLVKPSETLSLTCAVSGHSISHDHAWSWVRQPPGEGLEWIGFISYSGITNYNPSLQGRVTISRDNSKNTLYLQMNSLRAEDTAVYYCARSLARTTAMDYWGEGTLVTVSSAKTTPPSVYPLAPGSAAQTNSMVTLGCLVKGYFPEPVTVTWNSGSLSSGVHTFPAVLQSDLYTLSSSVTVPSSTWPSETVTCNVAHPASSTKVDKKIVPRDCGCKPCICEPNEVELVFIFPPKPKDVLTITLTPKVTCVVVDISKDDPEVQFSWFVDDVEVHTAQTQPREELFNSTFRSVSELPIMHQDWLNGKEFKCRVNSDAFPAPIERTISKTKGRPKAPQVYTIPPPKEQMAKDKVSLTCMITDFFPEDITVEWQWNGQPAENYKNTQPIMDTDGSYFVYSKLNVQKSNWEAGNTFTCSVLHEGLHNHHTEKSLSHSPGK light: not shown
6.28	33.5 fold vs H237-mIgG1/MRAL-k0	402	0.7 fold vs H237-mIgG1/MRAL-k0	H237-MB790/MRAL-k0 (antibody, mouse IgG1, kappa, copies: 2 + 2) heavy: QVQLQESGPGLVKPSETLSLTCAVSGHSISHDHAWSWVRQPPGEGLEWIGFISYSGITNYNPSLQGRVTISRDNSKNTLYLQMNSLRAEDTAVYYCARSLARTTAMDYWGEGTLVTVSSAKTTPPSVYPLAPGSAAQTNSMVTLGCLVKGYFPEPVTVTWNSGSLSSGVHTFPAVLQSDLYTLSSSVTVPSSTWPSETVTCNVAHPASSTKVDKKIVPRDCGCKPCICEPNEVELVFIFPPKPKDVLTITLTPKVTCVVVDISKDDPEVQFSWFVDDVEVHTAQTQPREEQFNSTFRSVSELPIMHQDWLNGKEFKCRVDSDAFPAPIERTISKTKGRPKAPQVYTIPPPKEQMAKDKVSLTCMITDFFPEDITVEWQWNGQPAENYKNTQPIMDTDGSYFVYSKLNVQKSNWEAGNTFTCSVLHEGLHNHHTEKSLSHSPGK light: not shown
5.45	38.5 fold vs H237-mIgG1/MRAL-k0	295	1 fold vs H237-mIgG1/MRAL-k0	H237-MB787/MRAL-k0 (antibody, mouse IgG1, kappa, copies: 2 + 2) heavy: QVQLQESGPGLVKPSETLSLTCAVSGHSISHDHAWSWVRQPPGEGLEWIGFISYSGITNYNPSLQGRVTISRDNSKNTLYLQMNSLRAEDTAVYYCARSLARTTAMDYWGEGTLVTVSSAKTTPPSVYPLAPGSAAQTNSMVTLGCLVKGYFPEPVTVTWNSGSLSSGVHTFPAVLQSDLYTLSSSVTVPSSTWPSETVTCNVAHPASSTKVDKKIVPRDCGCKPCICEPNEVELVFIFPPKPKDVLTITLTPKVTCVVVDISKDDPEVQFSWFVDDVEVHTAQTQPREELFNSTFRSVSELPIMHQDWLNGKEFKCRVDSDAFPAPIEKTISKTKGRPKAPQVYTIPPPKEQMAKDKVSLTCMITDFFPEDITVEWQWNGQPAENYKNTQPIMDTDGSYFVYSKLNVQKSNWEAGNTFTCSVLHEGLHNHHTEKSLSHSPGK light: not shown

Reference: patent publication US20150203577A1 (Chugai, published 2015)
